As usually defined, the stoichiometry N is the number of molecules, sites or subunits per partner or assembly.

For this assay, the target named is T1, full-length gp130 with a C-terminal EYMPME (Glu-Glu) epitope tag, P40189.
T1 chain: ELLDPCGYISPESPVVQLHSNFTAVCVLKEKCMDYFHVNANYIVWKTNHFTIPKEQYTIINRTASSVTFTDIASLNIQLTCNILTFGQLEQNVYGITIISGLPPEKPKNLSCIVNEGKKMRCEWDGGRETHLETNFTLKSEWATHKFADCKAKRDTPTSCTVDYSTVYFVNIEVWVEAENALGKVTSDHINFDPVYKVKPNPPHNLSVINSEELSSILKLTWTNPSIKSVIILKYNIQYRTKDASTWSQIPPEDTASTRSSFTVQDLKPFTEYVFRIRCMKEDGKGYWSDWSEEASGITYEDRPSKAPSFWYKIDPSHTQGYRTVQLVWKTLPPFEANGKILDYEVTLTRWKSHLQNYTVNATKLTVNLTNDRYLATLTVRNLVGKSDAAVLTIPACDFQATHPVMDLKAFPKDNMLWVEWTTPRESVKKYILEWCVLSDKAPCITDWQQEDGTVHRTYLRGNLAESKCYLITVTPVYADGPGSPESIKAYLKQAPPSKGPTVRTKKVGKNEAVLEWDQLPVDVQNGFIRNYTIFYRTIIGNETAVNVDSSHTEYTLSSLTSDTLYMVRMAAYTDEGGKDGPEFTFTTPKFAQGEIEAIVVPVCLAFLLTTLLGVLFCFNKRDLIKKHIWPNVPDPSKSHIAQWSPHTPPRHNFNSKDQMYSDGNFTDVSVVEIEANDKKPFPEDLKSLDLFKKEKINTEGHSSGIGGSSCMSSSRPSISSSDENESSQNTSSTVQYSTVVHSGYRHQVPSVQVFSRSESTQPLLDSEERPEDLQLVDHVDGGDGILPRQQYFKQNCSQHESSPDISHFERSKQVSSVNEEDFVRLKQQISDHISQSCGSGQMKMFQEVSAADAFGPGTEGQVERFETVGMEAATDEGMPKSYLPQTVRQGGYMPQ
Nature of the assay: SEC. The conditions noted are these: remark: other sources report otherwise.

B1: full-length gp130 with a C-terminal EYMPME (Glu-Glu) epitope tag, P40189 23-918 (receptor)
chain: ELLDPCGYISPESPVVQLHSNFTAVCVLKEKCMDYFHVNANYIVWKTNHFTIPKEQYTIINRTASSVTFTDIASLNIQLTCNILTFGQLEQNVYGITIISGLPPEKPKNLSCIVNEGKKMRCEWDGGRETHLETNFTLKSEWATHKFADCKAKRDTPTSCTVDYSTVYFVNIEVWVEAENALGKVTSDHINFDPVYKVKPNPPHNLSVINSEELSSILKLTWTNPSIKSVIILKYNIQYRTKDASTWSQIPPEDTASTRSSFTVQDLKPFTEYVFRIRCMKEDGKGYWSDWSEEASGITYEDRPSKAPSFWYKIDPSHTQGYRTVQLVWKTLPPFEANGKILDYEVTLTRWKSHLQNYTVNATKLTVNLTNDRYLATLTVRNLVGKSDAAVLTIPACDFQATHPVMDLKAFPKDNMLWVEWTTPRESVKKYILEWCVLSDKAPCITDWQQEDGTVHRTYLRGNLAESKCYLITVTPVYADGPGSPESIKAYLKQAPPSKGPTVRTKKVGKNEAVLEWDQLPVDVQNGFIRNYTIFYRTIIGNETAVNVDSSHTEYTLSSLTSDTLYMVRMAAYTDEGGKDGPEFTFTTPKFAQGEIEAIVVPVCLAFLLTTLLGVLFCFNKRDLIKKHIWPNVPDPSKSHIAQWSPHTPPRHNFNSKDQMYSDGNFTDVSVVEIEANDKKPFPEDLKSLDLFKKEKINTEGHSSGIGGSSCMSSSRPSISSSDENESSQNTSSTVQYSTVVHSGYRHQVPSVQVFSRSESTQPLLDSEERPEDLQLVDHVDGGDGILPRQQYFKQNCSQHESSPDISHFERSKQVSSVNEEDFVRLKQQISDHISQSCGSGQMKMFQEVSAADAFGPGTEGQVERFETVGMEAATDEGMPKSYLPQTVRQGGYMPQ
As for B1, the stoichiometry N turned out to be 2.
